Measured values taken from patent US7427498B2, “Composition, methods and reagents for the synthesis of a soluble form of human PHEX” (Universite De Montreal, priority 1999, dated 2008).
“Also recorded” adds a separate entry of the source.

T1: PTHrP107-139, P12272
T1 chain: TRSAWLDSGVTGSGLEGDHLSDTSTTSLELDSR

B1: secPHEX, soluble secreted form of recombinant human PHEX (construct 3, pCDNA3/RSV/PHEX-MutE) (protein)
chain: MEAETGSSVETGKKANRGTRIALVVFVLTVIAQQTTSQGLLSLQAKQEYCLKPECIEAAAAILSKVNLSVDPCDNFFRFACDGWISNNPIPEDMPSYGVYPWLRHNVDLKLKELLEKSISRRRDTEAIQKAKILYSSCMNEKAIEKADAKPLLHILRHSPFRWPVLESNIGPEGVWSERKFSLLQTLATFRGQYSNSVFIRLYVSPDDKASNEHILKLDQATLSLAVREDYLDNSTEAKSYRDALYKFMVDTAVLLGANSSRAEHDMKSVLRLEIKIAEIMIPHENRTSEAMYNKMNISELSAMIPQFDWLGYIKKVIDTRLYPHLKDISPSENVVVRVPQYFKDLFRILGSERKKTIANYLVWRMVYSRIPNLSRRFQYRWLEFSRVIQGTTTLLPQWDKCVNFIESALPYVVGKMFVDVYFQEDKKEMMEELVEGVRWAFIDMLEKENEWMDAGTKRKAKEKARAVLAKVGYPEFIMNDTHVNEDLKAIKFSEADYFGNVLQTRKYLAQSDFFWLRKAVPKTEWFTNPTTVNAFYSASTNQIRFPAGELQKPFFWGTEYPRSLSYGAIGVIVGHEFTHGFDNNGRKYDKNGNLDPWWSTESEEKFKEKTKCMINQYSNYYWKKAGLNVKGKRTLGENIADNGGLREAFRAYRKWINDRRQGLEEPLLPGITFTNNQLFFLSYAHVRCNSYRPEAAREQVQIGAHSPPQFRVNGAISNSEEFQKAFNCPPNSTMNRGMDSCRLW

Columns and labels:
secPHEX = experiment: Inhibition of secPHEX enzymatic activity (cleavage of PTHrP107-139, RP-HPLC); format: biochemical, human; details: 0.001 M inhibitor added to the reaction mixture
Description: (§1) FIG. 6: Enzymatic assay for secPHEX. Purified secPHEX (2 μg) was incubated in the presence of 10 μg PTHrP107-139 and the reaction mixture analyzed by RP-HPLC.
(§2) An aliquot of purified PHEX containing 2 μg of protein was incubated for 15 min at 37° C. in a volume of 200 μl of 50 mM MES (2-(N-Morpholinoethanesulfonic acid, pH 6.5, containing 150 mM NaCl and 10 μg of PTHrP107-139 as a substrate. After the incubation period, the hydrolysis was stopped by the addition of trifluoroacetic acid to a final concentration of 0.1%. Identification of peptide products was performed by reverse phase high performance liquid chromatography (RP-HPLC) on a C18 μBondapak analytical column (Waters) with a UV detector set at 214 nm. Peptides were resolved with a linear gradient of 5% B to 85% B in 45 min at the flow rate of 0.4 ml/min [mobile phase A=0.1% trifluoroacetic acid; mobile phase B=80% acetonitrile (CH3CN), 0.1% trifluoroacetic acid].

PTHrP107-139 = experiment: Assay for the activity of PHEX: digestion of PTHrP107-139 by purified secPHEX, RP-HPLC; format: biochemical
Description: as §1, §2

PTHrP107-139, P12272 = target: T1, PTHrP107-139, P12272

Molecule	inhibition of secPHEX enzymatic activity (degradation of PTHrP107-139) (secPHEX)	PTHrP107-139 peak on the chromatogram, % of its original surface (PTHrP107-139; 2 μg secPHEX, 10 μg PTHrP107-139, 15 min at 37° C., 50 mM MES pH 6.5, 150 mM NaCl)	enzymatic activity in other buffers (PTHrP107-139; Acetate, HEPES and Tris buffers covering a pH range from 4.0 to 8.5)	enzymatic activity on PTHrP107-139 (qualitative) (PTHrP107-139; purified secPHEX, conditions of Methods)	PTHrP107-139 peak on the chromatogram (RP-HPLC) after 15 min of incubation (PTHrP107-139, P12272)
c1cnc2c(c1)ccc1cccnc12 [O-phenantrolin]	fully inhibited				
O=C(O)CN(CCN(CC(=O)O)CC(=O)O)CC(=O)O [EDTA]	totally inhibited; also recorded: fully inhibited				
B1		15%	Activity was also observed	active; also recorded: can degrade this peptide	PTHrP107-139 peak on the chromatogram was decreased to 15% of its original surface after only 15 min of incubation
